According to PMC6985446:
Residue numbers refer to the chain shown, from its start.

Tests used:
Assay in all cases: EMSA
Settings in all cases: 10 mM Tris pH 8, 150 mM KCl, 500 nM EDTA, 0.1% Triton X-100, 12.5% glycerol, 1 mM DTT, 1 ug poly(dI-dC), 4 C, 30 min
[1] = target: T1, HetR S130A S130A (Nostoc PCC 7120) (UniProt P27709)
T1 sequence: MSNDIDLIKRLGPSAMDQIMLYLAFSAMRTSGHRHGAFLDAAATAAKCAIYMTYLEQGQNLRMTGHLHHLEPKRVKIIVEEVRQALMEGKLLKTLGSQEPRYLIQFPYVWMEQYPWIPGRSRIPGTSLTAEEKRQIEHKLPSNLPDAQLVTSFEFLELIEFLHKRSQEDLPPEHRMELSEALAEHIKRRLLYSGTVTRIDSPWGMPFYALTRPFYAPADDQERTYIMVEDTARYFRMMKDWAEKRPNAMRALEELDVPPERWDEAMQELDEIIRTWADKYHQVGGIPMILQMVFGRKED

[2] = target: T2, HetR S127A S127A (Nostoc PCC 7120) (UniProt P27709)
T2 sequence: T1 sequence with S127A, A130S

[3] = target: T3, HetR S179A S179A (Nostoc PCC 7120) (UniProt P27709)
T3 sequence: T1 sequence with A130S, S179A

[4] = target: T4, HetR S130D S130D (Nostoc PCC 7120) (UniProt P27709)
T4 sequence: T1 sequence with A130D

For “TGAGTTATACGCTATATCAATGGGGATTTTGAGCATTTTCTACTAGGTAATGAGGGGTTAGACCCCTCGCCTACTGTGCATTTGAGACTTTAAACCTACTAAGAGAATTTACCACTAAAT (double strand) [hetP promoter]”, the binding [1] was “binds”, the binding [2] was “binds” and the binding [3] was “no binding”. The binding [4] was “binds”.
